Measurements as given in publication doi:10.1101/2020.05.20.106609 (bioRxiv, 2020).
Numbering of substitutions follows the chain as printed.

B1: MD45 (scFv, V domains shown)
VH: EVQLVQSGGGLVQPGGSLRLSCAASGFTVSSNYMTWVRQAPGKGLEWVSVIYSGGSTFYADSVKGRFTISRHNSKNTLYLQMNSLRAEDTAVYYCARDLSVRGGMDVWGQGTMVTVSS
VL: EIVLTQSPGTLSLSPGERATLSCRASQSVNSSYLAWYQQKPGQAPRLLIYGASNRATGIPDRFSGSGSGTDFTLTISRLEPEDFAVYYCQQYGVSPEIIFGQGTRLEIK
B2: MD67 (scFv, V domains shown)
VH: B1 VH with Q6E, M113T
VL: not shown
B3: MD47 (scFv, V domains shown)
V domain 1: QMQLVQSGGGLVQPGGSLRLSCAASGFTFSSYAMSWVRQAPGKGLEWVSAISSGGSTYYADSVKGRFTISRDNSKNTLYLQMNSLRAEDTAVYYCAKDLVTAPSYEAFDIWGQGTMITVSS
V domain 2: NFMLTQPPSVSVAPGKTARITCGGNNIGSKSVHWYQQKPGQAPVLVIYYDSDRPSGIPERFSGSNSGNTATLTISRVEAGDEADYYCQVWDSSSHHHVVFGGGTKGTVL
B4: MD17 (scFv, V domains shown)
VH: EVQLLESGGGLVQPGGSLRLSCSASGFTFSTYVMNWVRQAPGKGLEHVSGISSDGGITYYADSVKGRFTISRDNSKNTLYLQMSSLRVEDTAVYYCVKDQDSSSWYDAFDIWGQGTMVTVSS
VL: DIVMTQSPSSLSASVGDRVTITCRASQSISNYLNWYQQKLGKAPKLLTYAASRLQSGVPSRFSASGSGTEFTLTISSLQPEDFATYYCQQSYTTPLTFGGGTKLEIK
B5: MD29 (scFv, V domains shown)
VH: B4 VH with E1Q, V2M, L5V, E6Q, L45P
VL: NIRLTQSPSSLSASVGDRVTITCRATQSISSYLNWYQQKPGKAPNLLIYAASSLQSGVPSRFSGSGSGTDFTLTISSLQPEDFATYYCHQTYTSPYTFGQGTKLEIK
B6: MD62 (scFv, V domains shown)
VH: EVQLVQSGGGLIQPGGSLRLSCAASGVTVSSNYMTWVRQAPGKGLEWVSLIYSGGSTYYADSVKGRFTISRDNSKNTLYLQMNSLRAEDTAVYYCARDLQYYGMDVWGQGTMVTVSS
VL: AIRMTQSPSSVSASVGDRVTITCRASQDIGSWLGWYQQKPGKAPKLLIYAASSLAGGVPSRFSGSGSGTDFTLTISSLQPEDFATYYCQQANSFPLTFGGGTKLEIK
B7: MD63 (scFv, V domains shown)
VH: QVTLKESGGGVVQPGRSLRLSCAASGFTFSSYAMHWVRQAPGKGLEHVSAISSDGGITYFADSVKGRFTISRDNSRNTLFLQMSSLRVEDTAVYYCVKDQDSNSWYDAFDIWGRGTMVTVSS
VL: not shown

These binders were tested against T1, SARS-CoV-2 spike receptor binding domain (RBD) (SARS-CoV-2 Wuhan-Hu-1 (QHD43416), UniProt P0DTC2) (assay: cell-based or functional assay).

Binder	NT50, plaque reduction neutralization test (PRNT), SARS-CoV-2 on Vero E6 cells
B1	2.1 µg/mL
B2	1.9 µg/mL
B3	13 µg/mL
B4	43 µg/mL
B5	13 µg/mL
B6	1.6 µg/mL

What follows are binders tested against SARS-CoV-2 spike N terminal domain (NTD) (SARS-CoV-2 Wuhan-Hu-1 (QHD43416), UniProt P0DTC2) (assay: ELISA).

Binder	binding result
B1	no binding
B2	no binding
B3	no binding
B7	no binding
B4	no binding
B5	no binding
B6	no binding

The binders below were run against T1, SARS-CoV-2 spike receptor binding … (assay: BLI).

Binder	Kd
B2	0.4 to 5.8 nM
B5	0.4 to 5.8 nM

These binders were tested against SARS-CoV-2 spike S1 subunit (SARS-CoV-2 Wuhan-Hu-1 (QHD43416), UniProt P0DTC2) (assay: ELISA).

Binder	Kd
B1	12.7 nM
B7	15.6 nM
